Target: T1, Elav (Drosophila melanogaster (w1118), UniProt P16914 1-483)
T1 sequence: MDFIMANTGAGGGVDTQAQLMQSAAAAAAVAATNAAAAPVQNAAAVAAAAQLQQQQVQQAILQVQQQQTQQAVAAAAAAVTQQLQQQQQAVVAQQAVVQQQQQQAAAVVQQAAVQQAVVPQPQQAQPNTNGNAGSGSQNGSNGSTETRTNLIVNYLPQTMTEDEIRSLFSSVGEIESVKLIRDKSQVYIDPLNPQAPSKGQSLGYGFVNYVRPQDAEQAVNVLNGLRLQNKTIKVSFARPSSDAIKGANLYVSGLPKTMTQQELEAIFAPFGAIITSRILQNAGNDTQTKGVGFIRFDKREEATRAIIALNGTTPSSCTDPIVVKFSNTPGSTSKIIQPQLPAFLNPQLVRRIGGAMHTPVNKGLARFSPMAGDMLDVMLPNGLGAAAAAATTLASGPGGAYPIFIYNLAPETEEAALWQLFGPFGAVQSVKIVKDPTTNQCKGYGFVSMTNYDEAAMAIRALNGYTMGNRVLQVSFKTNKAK
Test: EMSA

UGUGUAAGUGAGUACGGUCGCUGUGGUGUGAUGAUGGGUGUGG (ssRNA, U to G substitutions disrupting U-rich stretches) [Dscam1 EBS mutant probe]: no binding.

— paper doi:10.1101/613059
